Publication PMC10651481, “m1A in CAG repeat RNA binds to TDP-43 and induces neurodegeneration”

Columns and labels:
TDP-43 full-length [1] = biological target: T1, TDP-43 full-length (UniProt Q13148 1-414); assay: EMSA; EMSA: 10 mM HEPES pH 8.0, 50 mM KCl, 1 mM EDTA, 5% glycerol, 1 mM DTT, 40 U/ml RNase inhibitor, 4 C, 1 h; 20 fmol probe in 20 ul; 8% native PAGE; settings: protein: recombinant, tags: MBP-6xHis (C-terminal as named TDP-43-MBP-6xHis)
TDP-43-RRM = TDP-43-RRM (UniProt Q13148 104-262); assay: as above; settings: protein: recombinant
TDP-43 full-length [2] = biological target: T1, TDP-43 full-length; assay: EMSA; separate experiment run beside 5FL; differs from 70 nM in 3d,e; EMSA: 10 mM HEPES pH 8.0, 50 mM KCl, 1 mM EDTA, 5% glycerol, 1 mM DTT, 40 U/ml RNase inhibitor, 4 C, 1 h; 20 fmol probe in 20 ul; 8% native PAGE; settings: protein: recombinant; tags: MBP-6xHis (C-terminal as named TDP-43-MBP-6xHis); label: 5'-32P

T1 sequence (Q13148 whole entry): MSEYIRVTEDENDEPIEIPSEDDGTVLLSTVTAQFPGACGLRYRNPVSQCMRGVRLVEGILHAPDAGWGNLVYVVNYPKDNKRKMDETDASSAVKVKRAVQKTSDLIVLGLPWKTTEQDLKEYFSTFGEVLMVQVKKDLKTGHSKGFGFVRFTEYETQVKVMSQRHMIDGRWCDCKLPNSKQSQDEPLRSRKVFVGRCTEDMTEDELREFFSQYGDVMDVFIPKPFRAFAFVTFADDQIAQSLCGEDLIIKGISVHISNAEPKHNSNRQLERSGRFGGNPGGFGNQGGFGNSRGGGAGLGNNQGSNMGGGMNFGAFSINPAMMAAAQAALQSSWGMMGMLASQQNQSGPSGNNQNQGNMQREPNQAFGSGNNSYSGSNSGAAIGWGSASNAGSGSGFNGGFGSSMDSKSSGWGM
TDP-43-RRM, sequence (Q13148 104-262): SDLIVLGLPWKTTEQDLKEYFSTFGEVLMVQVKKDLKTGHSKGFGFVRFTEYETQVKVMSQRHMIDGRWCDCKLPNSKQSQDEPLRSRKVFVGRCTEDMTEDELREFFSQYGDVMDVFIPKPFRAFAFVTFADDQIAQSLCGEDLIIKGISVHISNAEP

In the case of CCGUUCCGCCCAGGCCGCGCCCAGCUGGAAUGCA (ssRNA) [Control RNA probe (rA)], the Kd (TDP-43 full-length [1]; label: 5'-biotin, 3'-32P pCp) is reported as 38 nM and the Kd (TDP-43-RRM; label: 5'-biotin, 3'-32P pCp) is reported as 73 nM.

CCGUUCCGCCCAGGCCGCGCCCAGCUGGAAUGCA (ssRNA, m1A at position 12) [m1A RNA probe] was tested, and the Kd (TDP-43 full-length [1]; label: 5'-biotin, 3'-32P pCp) was 18 nM and the Kd (TDP-43-RRM; label: 5'-biotin, 3'-32P pCp) was 31 nM.

CAGCAGCAGCAGCAGCAGCAG (ssRNA, m1A at position 11) [(CAG)7-1m1A] gave a Kd (TDP-43 full-length [2]) of 13.1 nM, a Kd (TDP-43 full-length [1]; label: 5'-32P) of 70 nM and a Kd (TDP-43-RRM; label: 5'-32P) of 180 nM.

With CCGUUCCGCCCAGGCCGCGCCCAGCUGGAAUGCA (ssRNA, m6A at position 12) [m6A RNA probe] the Kd (TDP-43 full-length [1]; label: 5'-biotin, 3'-32P pCp) was 46 nM and the Kd (TDP-43-RRM; label: 5'-biotin, 3'-32P pCp) was 81 nM.

Binder CAGCAGCAGCAGCAGCAGCAG (ssRNA) [(CAG)7-0m1A] has a Kd (TDP-43 full-length [1]; label: 5'-32P) of 146 nM and a Kd (TDP-43-RRM; label: 5'-32P) of 380 nM.
